Test results published in publication PMC12162846, “Tripartite motif-containing protein 26 promotes colorectal cancer growth by inactivating p53” (Cell Death and Differentiation, 2025).

Molecular target: T1, His-p53 (UniProt P04637 1-393)
T1 construct: p53; also called Purified p53; source: purified
Experiment: pull-down; GST-TRIM26 fragments on beads, incubated with His-p53 or His-MDM2 at RT for 40 min; bound protein detected by Western blot with His antibody
Conditions: both partners purified

T1 sequence (P04637 whole entry): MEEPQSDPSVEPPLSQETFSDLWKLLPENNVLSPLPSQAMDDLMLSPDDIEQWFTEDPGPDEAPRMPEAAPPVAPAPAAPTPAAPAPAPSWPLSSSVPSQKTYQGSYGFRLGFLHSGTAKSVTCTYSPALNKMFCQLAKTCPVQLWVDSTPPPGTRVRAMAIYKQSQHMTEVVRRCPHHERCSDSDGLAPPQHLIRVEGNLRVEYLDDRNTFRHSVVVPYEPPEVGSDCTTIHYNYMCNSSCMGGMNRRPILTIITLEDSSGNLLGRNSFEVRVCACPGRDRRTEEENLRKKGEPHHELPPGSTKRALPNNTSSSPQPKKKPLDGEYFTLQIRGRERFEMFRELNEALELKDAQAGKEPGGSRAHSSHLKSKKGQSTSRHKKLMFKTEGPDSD

binding result: binds
B1: GST-TRIM26 C-terminal PRYSPRY domain (aa301-539) (domain or fragment, UniProt Q12899 301-539, looked up)
chain: QGKLLRDLEYKTVSVTLDPQSASGYLQLSEDWKCVTYTSLYKSAYLHPQQFDCEPGVLGSKGFTWGKVYWEVEVEREGWSEDEEEGDEEEEGEEEEEEEEAGYGDGYDDWETDEDEESLGDEEEEEEEEEEEVLESCMVGVARDSVKRKGDLSLRPEDGVWALRLSSSGIWANTSPEAELFPALRPRRVGIALDYEGGTVTFTNAESQELIYTFTATFTRRLVPFLWLKWPGTRLLLRP
notes: also called the C-terminal domain of TRIM26; source: purified GST-fusion protein on beads
